{"source": "paper PMC3625156", "about": "“Biochemical Characteristics of New Delhi Metallo-β-Lactamase-1 Show Unexpected Difference to Other MBLs” (PLoS ONE, 2013)", "key": {"[1]": {"biological_target": "T1, New Delhi metallo-β-lactamase-1 (NDM-1) (Klebsiella pneumoniae, UniProt C7C422)", "T1 construct": "gene blaNDM-1; native (no fusion or tag) NDM-1", "T1 sequence (C7C422 29-270 limits assumed)": "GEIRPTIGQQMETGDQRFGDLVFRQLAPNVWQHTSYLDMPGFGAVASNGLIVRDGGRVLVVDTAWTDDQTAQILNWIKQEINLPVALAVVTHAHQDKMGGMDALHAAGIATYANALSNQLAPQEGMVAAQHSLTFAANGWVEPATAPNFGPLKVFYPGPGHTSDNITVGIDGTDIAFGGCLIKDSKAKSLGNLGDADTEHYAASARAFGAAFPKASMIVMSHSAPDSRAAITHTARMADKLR", "assay": "initial hydrolysis rate of […] substrate by purified enzyme at varied ZnSO4", "assay_type": "biochemical"}, "[2]": {"test_system": "CC(C)(O/N=C(\\C(=O)N[C@@H]1C(=O)N2C(C(=O)[O-])=C(C[n+]3ccccc3)CS[C@H]12)c1csc(N)n1)C(=O)O", "assay": "purified protein", "assay_type": "biochemical, Klebsiella pneumoniae", "conditions": "Zn2+"}, "[3]": {"test_system": "C[C@@H](O)[C@H]1C(=O)N2C(C(=O)[O-])=C(SC3Cn4cnc[n+]4C3)[C@H](C)[C@H]12", "assay": "purified protein", "assay_type": "biochemical, Klebsiella pneumoniae", "conditions": "Zn2+"}, "[4]": {"test_system": "C[C@@H](O)[C@H]1C(=O)N2C(C(=O)O)=C(S[C@@H]3CN[C@H](C(=O)N(C)C)C3)[C@H](C)[C@H]12", "assay": "purified protein", "assay_type": "biochemical, Klebsiella pneumoniae", "conditions": "Zn2+"}, "[5]": {"test_system": "CC1(C)S[C@@H]2[C@H](NC(=O)Cc3ccccc3)C(=O)N2[C@H]1C(=O)O", "assay": "purified protein", "assay_type": "biochemical, Klebsiella pneumoniae", "conditions": "Zn2+"}, "[6]": {"test_system": "CO[C@@]1(NC(=O)Cc2cccs2)C(=O)N2C(C(=O)O)=C(COC(N)=O)CS[C@@H]21", "assay": "purified protein", "assay_type": "biochemical, Klebsiella pneumoniae", "conditions": "Zn2+"}, "[7]": {"test_system": "CCN1CCN(C(=O)N[C@@H](C(=O)N[C@@H]2C(=O)N3[C@@H]2SC(C)(C)[C@@H]3C(=O)O)c2ccccc2)C(=O)C1=O", "assay": "purified protein", "assay_type": "biochemical, Klebsiella pneumoniae", "conditions": "Zn2+"}, "[8]": {"test_system": "CO/N=C(\\C(=O)N[C@@H]1C(=O)N2C(C(=O)O)=C(COC(C)=O)CS[C@H]12)c1csc(N)n1", "assay": "purified protein", "assay_type": "biochemical, Klebsiella pneumoniae", "conditions": "Zn2+"}}, "data": [{"molecule": "CO/N=C(\\C(=O)N[C@@H]1C(=O)N2C(C(=O)[O-])=C(C[N+]3(C)CCCC3)CS[C@H]12)c1csc(N)n1", "note": "[cefepime]", "values": [{"measurement": "initial hydrolysis rate of 0.5 mM substrate by purified enzyme at varied ZnSO4", "setting": "[1]", "result": "The hydrolysis rates of cephem (ceftazidime and cefepime) were found to be very sensitive to the ZnSO4 concentration"}]}, {"molecule": "New Delhi metallo-β-lactamase-1 (NDM-1) (Klebsiella pneumoniae)", "values": [{"measurement": "Km", "setting": "[2]", "result": 74, "unit": "µM"}, {"measurement": "kcat", "setting": "[2]", "result": 60.9, "unit": "s⁻¹"}, {"measurement": "kcat/Km", "setting": "[2]", "result": 830000, "unit": "M⁻¹ s⁻¹"}, {"measurement": "Km", "setting": "[3]", "result": 155, "unit": "µM"}, {"measurement": "kcat", "setting": "[3]", "result": 106, "unit": "s⁻¹"}, {"measurement": "kcat/Km", "setting": "[3]", "result": 680000, "unit": "M⁻¹ s⁻¹"}, {"measurement": "Km", "setting": "[4]", "result": 42, "unit": "µM"}, {"measurement": "kcat", "setting": "[4]", "result": 30.8, "unit": "s⁻¹"}, {"measurement": "kcat/Km", "setting": "[4]", "result": 730000, "unit": "M⁻¹ s⁻¹"}, {"measurement": "Km", "setting": "[5]", "result": 103, "unit": "µM"}, {"measurement": "kcat", "setting": "[5]", "result": 27.5, "unit": "s⁻¹"}, {"measurement": "kcat/Km", "setting": "[5]", "result": 270000, "unit": "M⁻¹ s⁻¹"}, {"measurement": "Km", "setting": "[6]", "result": 63, "unit": "µM"}, {"measurement": "kcat", "setting": "[6]", "result": 38.3, "unit": "s⁻¹"}, {"measurement": "kcat/Km", "setting": "[6]", "result": 610000, "unit": "M⁻¹ s⁻¹"}, {"measurement": "Km", "setting": "[7]", "result": 69, "unit": "µM"}, {"measurement": "kcat", "setting": "[7]", "result": 8.3, "unit": "s⁻¹"}, {"measurement": "kcat/Km", "setting": "[7]", "result": 120000, "unit": "M⁻¹ s⁻¹"}, {"measurement": "Km", "setting": "[8]", "result": 43, "unit": "µM"}, {"measurement": "kcat", "setting": "[8]", "result": 31.5, "unit": "s⁻¹"}, {"measurement": "kcat/Km", "setting": "[8]", "result": 740000, "unit": "M⁻¹ s⁻¹"}]}]}
